Where a chain is given by its changes, count along the chain named.

Data set [1] concerns the target T1, Dfd (Deformed);Exd (Extradenticle) (Drosophila melanogaster?;Drosophila …, UniProt P07548;P40427 1-586;1-376, |). Nature of the data set: EMSA; Hth presence not stated; review file prints 6.85 and 6.65; 20 mM HEPES pH 7.9, 1.4 mM MgCl2, 1 mM ZnSO4, 40 mM KCl, 0.1 mM EGTA, 5% glycerol, 10 mM DTT, 0.1% NP40, 200 ng poly(dI-dC), 3 ug BSA, 2 pmol Cy5 dsDNA in 30 ul, on ice 20 min; 1% agarose-TBE gel at 4 C. To be noted: protein: recombinant;recombinant; tags: GST (pGEX-6P);His-myc; copies: 1;1; label: 5'-Cy5; blunt. Background: Mobility shift assays separate free from complexed probe on a gel.

Data set [2] concerns the target T1, Dfd (Deformed);Exd (Extradenticle). Briefly: EMSA; Hth presence not given; 20 mM HEPES pH 7.9, 1.4 mM MgCl2, 1 mM ZnSO4, 40 mM KCl, 0.1 mM EGTA, 5% glycerol, 10 mM DTT, 0.1% NP40, 200 ng poly(dI-dC), 3 ug BSA, 2 pmol Cy5 dsDNA in 30 ul, on ice 20 min; 1% agarose-TBE gel at 4 C. To be noted: protein: recombinant;recombinant; tags: GST (pGEX-6P);His-myc; copies: 1;1; label: 5'-Cy5; blunt.

Data set [3] addresses T2, Dfd (Deformed);Exd (Extradenticle);Hth (Homothorax) (Drosophila melanogaster?;Drosophila …, UniProt P07548;P40427;O46339 1-586;1-376;1-487, ||). Nature of the data set: EMSA; 20 mM HEPES pH 7.9, 1.4 mM MgCl2, 1 mM ZnSO4, 40 mM KCl, 0.1 mM EGTA, 5% glycerol, 10 mM DTT, 0.1% NP40, 200 ng poly(dI-dC), 3 ug BSA, 2 pmol Cy5 dsDNA in 30 ul, on ice 20 min; 1% agarose-TBE gel at 4 C. To be noted: protein: recombinant;recombinant;recombinant; tags: GST (pGEX-6P);His-myc;His-Flag; copies: 1;1;1; label: 5'-Cy5; blunt.

The target in data set [4] is T2, Dfd (Deformed);Exd (Extradenticle);Hth …. Briefly: EMSA; binding abolished when all sites mutated; 20 mM HEPES pH 7.9, 1.4 mM MgCl2, 1 mM ZnSO4, 40 mM KCl, 0.1 mM EGTA, 5% glycerol, 10 mM DTT, 0.1% NP40, 200 ng poly(dI-dC), 3 ug BSA, 2 pmol Cy5 dsDNA in 30 ul, on ice 20 min; 1% agarose-TBE gel at 4 C. To be noted: protein: recombinant;recombinant;recombinant; tags: GST (pGEX-6P);His-myc;His-Flag; copies: 1;1;1; label: 5'-Cy5; blunt.

T1 sequence (P07548 whole entry, chain 1 of 2): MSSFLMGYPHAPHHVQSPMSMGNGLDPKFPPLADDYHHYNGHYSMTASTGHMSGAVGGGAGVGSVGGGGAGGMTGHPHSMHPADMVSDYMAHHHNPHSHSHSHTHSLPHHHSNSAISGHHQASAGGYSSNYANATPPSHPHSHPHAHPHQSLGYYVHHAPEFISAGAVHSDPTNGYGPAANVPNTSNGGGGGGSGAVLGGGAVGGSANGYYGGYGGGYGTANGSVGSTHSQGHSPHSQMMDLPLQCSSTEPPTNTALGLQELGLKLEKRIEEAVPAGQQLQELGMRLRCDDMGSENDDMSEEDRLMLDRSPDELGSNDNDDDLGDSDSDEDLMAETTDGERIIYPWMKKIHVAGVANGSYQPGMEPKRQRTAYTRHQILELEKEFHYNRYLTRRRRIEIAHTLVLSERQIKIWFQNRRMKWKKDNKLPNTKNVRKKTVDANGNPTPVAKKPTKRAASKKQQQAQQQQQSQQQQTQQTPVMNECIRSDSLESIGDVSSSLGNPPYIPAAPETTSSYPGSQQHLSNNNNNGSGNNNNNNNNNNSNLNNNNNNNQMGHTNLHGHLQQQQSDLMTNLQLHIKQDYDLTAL
T1 sequence (P40427 whole entry, chain 2 of 2): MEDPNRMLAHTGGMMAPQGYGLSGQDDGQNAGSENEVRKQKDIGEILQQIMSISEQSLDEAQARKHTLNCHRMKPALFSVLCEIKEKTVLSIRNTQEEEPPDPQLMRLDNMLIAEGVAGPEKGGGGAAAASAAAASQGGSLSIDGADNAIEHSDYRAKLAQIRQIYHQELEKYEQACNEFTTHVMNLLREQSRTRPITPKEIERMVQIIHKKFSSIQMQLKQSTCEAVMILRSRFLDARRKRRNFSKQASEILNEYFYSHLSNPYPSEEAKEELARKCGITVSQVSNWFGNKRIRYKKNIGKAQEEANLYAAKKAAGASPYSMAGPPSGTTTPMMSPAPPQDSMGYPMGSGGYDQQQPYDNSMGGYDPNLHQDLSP
T2 sequence (P07548 whole entry, chain 1 of 3): as the sequence (P07548 whole entry, chain 1 of 2) above
T2 sequence (P40427 whole entry, chain 2 of 3): as the sequence (P40427 whole entry, chain 2 of 2) above
T2 sequence (O46339 whole entry, chain 3 of 3): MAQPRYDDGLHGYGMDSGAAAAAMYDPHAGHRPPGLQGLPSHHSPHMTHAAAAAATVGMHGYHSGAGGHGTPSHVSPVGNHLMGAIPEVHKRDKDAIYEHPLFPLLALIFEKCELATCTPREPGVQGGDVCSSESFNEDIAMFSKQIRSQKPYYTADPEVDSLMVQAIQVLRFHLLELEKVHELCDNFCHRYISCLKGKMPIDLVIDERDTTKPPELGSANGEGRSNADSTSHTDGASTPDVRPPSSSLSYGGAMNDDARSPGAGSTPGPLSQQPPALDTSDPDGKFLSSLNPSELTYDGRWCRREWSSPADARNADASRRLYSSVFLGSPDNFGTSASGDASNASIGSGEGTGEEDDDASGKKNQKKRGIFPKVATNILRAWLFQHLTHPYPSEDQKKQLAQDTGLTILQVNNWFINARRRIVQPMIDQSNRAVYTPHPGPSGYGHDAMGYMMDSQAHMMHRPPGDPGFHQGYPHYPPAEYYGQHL

B1: oligo-E-11-H (dsDNA)
DNA 1: CTTCTTCGGATGATTAATGACGCGCGTTCAACAT
DNA 2: ATGTTGAACGCGCGTCATTAATCATCCGAAGAAG
Consider B1, for which the Kd in data set [1] was found to be 6.7 nM.

B2: oligo-D-1-mt-2-H (D-9mut-10H) (dsDNA)
DNA 1: TATAAAAGGCGGCATTGATTAATTAATTCTCGAT
DNA 2: ATCGAGAATTAATTAATCAATGCCGCCTTTTATA
B2: in data set [2], the Kd came out at 8.16 nM.

B3: oligo-E-wt (site 11) (dsDNA)
DNA 1: CTTCTTCGGGCACCTAATGACGCGCGTTCAACAT
DNA 2: ATGTTGAACGCGCGTCATTAGGTGCCCGAAGAAG
With B3, the binding result in data set [3] was “binds”. For the same molecule, the Kd in data set [2] amounted to 16.8 nM.

B4: oligo-A-wt (site 1) (dsDNA)
DNA 1: TCTCAGCCTCGATAATTAACACACAAGCGCGGGG
DNA 2: CCCCGCGCTTGTGTGTTAATTATCGAGGCTGAGA
As to B4, in data set [3], the binding result is reported as “binds”.

B5: oligo-B-12-mt (dsDNA)
DNA 1: GACCGCAGAACCAAGCCGCCTATTGCCAGTGAAT
DNA 2: ATTCACTGGCAATAGGCGGCTTGGTTCTGCGGTC
For B5, the binding result in data set [4] is reported as “no binding”.

B6: oligo-D-1-mt (D-9mut-10wt) (dsDNA)
DNA 1: TATAAAAGGCGGCAAATACTAATCTATTCTCGAT
DNA 2: ATCGAGAATAGATTAGTATTTGCCGCCTTTTATA
Turning to B6, the Kd in data set [2] worked out at 16.9 nM.

B7: oligo-D-wt (sites 9, 10) (dsDNA)
DNA 1: B6 DNA 1 with G9C, G11A, G12T, C13T
DNA 2: B6 DNA 2 with G22A, C23A, C24T, C26G
As for B7, the binding result in data set [3] was “binds”.

B8: oligo-class-2-site (dsDNA)
DNA 1: TTCAGAGCGAATGATTAATGATCGGTCAAG
DNA 2: CTTGACCGATCATTAATCATTCGCTCTGAA
For B8, the Kd in data set [2] was determined as 9.12 nM.

By Kd is commonly meant a measure of binding affinity in units of concentration.
